Substitutions are numbered along the chain they refer to. In names and notes the source's numbering stands. Blank lines part the entries; values can stand above or below the binder they belong to.
What was measured:
[1] = biological target: T1, muCDH19(44-139)::huCDH19(142-364)::muCDH19(363-770), Flag-tagged, on 293T cells (human/mouse chimera); assay: FACS, transfected 293T
T1 construct: also called Hu EC2-3; C137847
Source text: (§1) The experiment included assaying the anti-CDH19 antibodies against mouse Cadherin19 to determine suitability for binning on these human/mouse chimeras.

[2] = biological target: T2, muCDH19(44-362)::huCDH19(365-772), Flag-tagged, on 293T cells (human/mouse chimera); assay: FACS, transfected 293T
T2 construct: also called Hu EC4-5; C137917
T2 chain: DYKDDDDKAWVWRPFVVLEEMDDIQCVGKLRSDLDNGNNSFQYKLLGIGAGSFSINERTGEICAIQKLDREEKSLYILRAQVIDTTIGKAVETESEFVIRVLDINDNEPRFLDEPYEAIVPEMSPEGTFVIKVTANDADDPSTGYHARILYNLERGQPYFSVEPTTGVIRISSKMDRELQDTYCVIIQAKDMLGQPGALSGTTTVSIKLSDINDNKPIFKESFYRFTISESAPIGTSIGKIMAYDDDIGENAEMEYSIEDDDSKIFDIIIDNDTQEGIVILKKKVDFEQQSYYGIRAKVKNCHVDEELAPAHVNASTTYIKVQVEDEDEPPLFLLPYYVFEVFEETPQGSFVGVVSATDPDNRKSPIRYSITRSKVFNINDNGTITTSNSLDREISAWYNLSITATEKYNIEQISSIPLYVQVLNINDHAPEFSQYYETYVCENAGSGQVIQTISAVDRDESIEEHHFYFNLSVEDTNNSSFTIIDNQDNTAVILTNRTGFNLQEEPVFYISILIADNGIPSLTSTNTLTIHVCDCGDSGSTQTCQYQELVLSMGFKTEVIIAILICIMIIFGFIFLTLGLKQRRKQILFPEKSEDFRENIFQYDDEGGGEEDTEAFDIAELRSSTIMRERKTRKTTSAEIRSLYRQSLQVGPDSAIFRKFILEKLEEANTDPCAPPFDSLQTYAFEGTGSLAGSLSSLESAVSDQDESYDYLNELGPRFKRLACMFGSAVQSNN
Source text: as §1

[3] = biological target: T3, huCDH19(44-141)::muCDH19(140-770), Flag-tagged, on 293T cells (human/mouse chimera); assay: FACS, transfected 293T
T3 construct: also called Hu EC1
Source text: as §1

[4] = biological target: T4, muCDH19(44-770), Flag-tagged, on 293T cells (mouse); assay: FACS, transfected 293T
T4 construct: also called Mu EC1-5
T4 chain: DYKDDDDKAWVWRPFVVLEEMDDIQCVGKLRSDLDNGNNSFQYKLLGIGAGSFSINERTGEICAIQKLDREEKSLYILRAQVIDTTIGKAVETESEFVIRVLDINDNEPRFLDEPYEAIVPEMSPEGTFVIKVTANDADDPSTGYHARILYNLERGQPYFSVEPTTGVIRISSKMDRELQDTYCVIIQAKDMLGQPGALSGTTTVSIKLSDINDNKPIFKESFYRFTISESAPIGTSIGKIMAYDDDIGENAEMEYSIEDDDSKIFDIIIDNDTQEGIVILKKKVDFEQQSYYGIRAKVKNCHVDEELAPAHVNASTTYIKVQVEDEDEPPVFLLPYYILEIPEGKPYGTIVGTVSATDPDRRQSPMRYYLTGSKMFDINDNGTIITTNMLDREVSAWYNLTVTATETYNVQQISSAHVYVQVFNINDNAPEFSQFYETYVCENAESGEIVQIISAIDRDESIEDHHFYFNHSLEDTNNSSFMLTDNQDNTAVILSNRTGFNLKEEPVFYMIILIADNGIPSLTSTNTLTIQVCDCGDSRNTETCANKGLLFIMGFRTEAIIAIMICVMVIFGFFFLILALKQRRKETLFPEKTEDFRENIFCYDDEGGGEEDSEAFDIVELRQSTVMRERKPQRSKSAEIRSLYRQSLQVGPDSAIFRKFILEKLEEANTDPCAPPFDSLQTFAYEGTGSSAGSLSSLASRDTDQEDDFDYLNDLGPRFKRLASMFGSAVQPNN
Source text: as §1

[5] = biological target: T5, muCDH19(44-461)::huCDH19(464-772), Flag-tagged, on 293T cells (human/mouse chimera); assay: FACS, transfected 293T
T5 construct: also called Hu EC5; C137915
T5 chain: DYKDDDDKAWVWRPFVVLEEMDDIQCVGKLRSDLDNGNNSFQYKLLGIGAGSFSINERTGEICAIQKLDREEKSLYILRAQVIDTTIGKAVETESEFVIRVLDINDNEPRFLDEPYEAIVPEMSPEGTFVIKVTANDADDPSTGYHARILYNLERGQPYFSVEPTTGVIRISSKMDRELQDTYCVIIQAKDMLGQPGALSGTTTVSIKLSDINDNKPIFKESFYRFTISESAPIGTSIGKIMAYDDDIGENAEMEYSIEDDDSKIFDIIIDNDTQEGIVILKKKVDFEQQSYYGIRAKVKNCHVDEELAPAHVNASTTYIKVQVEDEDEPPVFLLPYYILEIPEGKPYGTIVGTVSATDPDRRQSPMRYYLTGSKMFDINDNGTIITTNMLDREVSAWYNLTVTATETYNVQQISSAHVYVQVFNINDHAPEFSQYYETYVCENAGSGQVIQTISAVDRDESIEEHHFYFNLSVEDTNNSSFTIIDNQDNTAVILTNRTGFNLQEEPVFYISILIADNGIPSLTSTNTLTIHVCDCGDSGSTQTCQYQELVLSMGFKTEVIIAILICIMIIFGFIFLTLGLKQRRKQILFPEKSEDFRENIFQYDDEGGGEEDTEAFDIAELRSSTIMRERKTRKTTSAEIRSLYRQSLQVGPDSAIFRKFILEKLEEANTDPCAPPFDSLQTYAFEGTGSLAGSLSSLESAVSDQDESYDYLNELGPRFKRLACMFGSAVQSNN
Source text: as §1

[6] = biological target: T6, huCDH19(44-249)::muCDH19(248-770), Flag-tagged, on 293T cells (human/mouse chimera); assay: FACS, transfected 293T
T6 construct: also called Hu EC1-2; C137896
Source text: as §1

[7] = biological target: T7, muCDH19(44-247)::huCDH19(250-364)::muCDH19(363-770), Flag-tagged, on 293T cells (human/mouse chimera); assay: FACS, transfected 293T
T7 construct: also called Hu EC3; C137911
Source text: as §1

[8] = biological target: T8, huCDH19(44-772), Flag-tagged, on 293T cells (human, UniProt Q9H159 44-772); assay: FACS, transfected 293T
T8 construct: Expressed with native leader (1-43) followed by a Flag tag; leader left out; also called Hu EC1-5
Source text: as §1

[9] = biological target: T9, muCDH19(44-139)::huCDH19(142-249)::muCDH19(248-770), Flag-tagged, on 293T cells (human/mouse chimera); assay: FACS, transfected 293T
T9 construct: also called Hu EC2; C137913
T9 chain: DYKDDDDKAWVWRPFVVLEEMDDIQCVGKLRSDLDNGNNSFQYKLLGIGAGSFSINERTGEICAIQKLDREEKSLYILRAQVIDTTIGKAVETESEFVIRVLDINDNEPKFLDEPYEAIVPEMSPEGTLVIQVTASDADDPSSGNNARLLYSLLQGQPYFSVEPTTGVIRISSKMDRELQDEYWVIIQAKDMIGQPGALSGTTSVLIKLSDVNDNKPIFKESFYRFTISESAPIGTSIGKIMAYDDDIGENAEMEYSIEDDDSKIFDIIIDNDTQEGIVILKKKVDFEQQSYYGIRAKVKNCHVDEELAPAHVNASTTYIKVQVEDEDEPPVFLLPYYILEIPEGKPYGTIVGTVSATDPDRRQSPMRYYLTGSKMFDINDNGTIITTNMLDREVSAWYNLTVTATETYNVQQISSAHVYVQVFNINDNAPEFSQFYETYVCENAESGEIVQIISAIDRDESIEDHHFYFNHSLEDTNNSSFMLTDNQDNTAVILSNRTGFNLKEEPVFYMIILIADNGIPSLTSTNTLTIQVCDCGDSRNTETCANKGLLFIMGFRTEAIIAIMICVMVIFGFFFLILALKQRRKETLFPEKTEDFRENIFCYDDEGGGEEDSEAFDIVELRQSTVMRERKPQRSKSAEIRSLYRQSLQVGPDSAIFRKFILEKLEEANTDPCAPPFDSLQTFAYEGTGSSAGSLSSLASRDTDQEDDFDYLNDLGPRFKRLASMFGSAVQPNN
Source text: as §1

Human Cadherin-19 [10] = biological target: T10, Human Cadherin-19 (human, UniProt Q9H159 44-772); assay: FACS, endogenous and recombinant human CDH19
T10 construct: Residues 1-43 are named as the native leader in the construct designations and are left out; also called human CDH19; huCDH19
Procedure: (§2) FACS binding assays were performed to evaluate the binding of the anti-Cadherin-19 receptor specific antibodies to endogenous Cadherin-19 receptor expressed on the CHL-1 tumor cell lines.
(§3) FACs assays were performed by incubating hybridoma supernatants with 10,000 to 25,000 cells in PBS/2% Fetal bovine serum/2 mM Calcium Chloride at 4° C. for one hour followed by two washes with PBS/2% Fetal bovine serum/2 mM Calcium Chloride. Cells were then treated with florochrome-labeled secondary antibodies at 4° C. followed by one wash. The cells were resuspended in 50 μl of PBS/2% FBS and antibody binding was analyzed using a FACSCalibur™ instrument.

Cyno Cadherin-19 = biological target: T11, Cyno Cadherin-19 (cynomolgus monkey (Macaca fascicularis), UniProt Q9H159 44-772 (human entry)); assay: FACS, recombinant cyno CDH19
T11 construct: also called cyno CDH19; cynomologous CDH-19
T11 chain: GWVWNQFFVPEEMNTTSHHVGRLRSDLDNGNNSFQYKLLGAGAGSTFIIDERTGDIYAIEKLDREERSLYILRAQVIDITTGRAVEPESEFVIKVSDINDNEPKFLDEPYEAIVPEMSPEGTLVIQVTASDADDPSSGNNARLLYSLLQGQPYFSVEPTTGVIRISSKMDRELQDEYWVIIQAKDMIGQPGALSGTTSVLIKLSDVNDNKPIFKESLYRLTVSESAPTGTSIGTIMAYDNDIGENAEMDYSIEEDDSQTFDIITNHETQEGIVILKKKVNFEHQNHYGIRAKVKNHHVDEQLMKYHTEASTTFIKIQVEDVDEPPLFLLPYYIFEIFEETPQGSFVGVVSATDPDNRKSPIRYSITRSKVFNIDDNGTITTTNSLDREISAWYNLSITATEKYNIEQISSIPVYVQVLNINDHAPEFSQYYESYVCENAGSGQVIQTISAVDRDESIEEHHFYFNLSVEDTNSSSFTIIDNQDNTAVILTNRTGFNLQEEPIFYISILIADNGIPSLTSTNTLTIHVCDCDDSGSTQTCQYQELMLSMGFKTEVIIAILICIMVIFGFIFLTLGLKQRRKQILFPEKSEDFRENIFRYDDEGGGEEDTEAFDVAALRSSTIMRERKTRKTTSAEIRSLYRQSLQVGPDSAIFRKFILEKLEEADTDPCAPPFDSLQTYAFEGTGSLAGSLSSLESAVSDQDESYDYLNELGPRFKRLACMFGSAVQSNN

Human Cadherin-19 [11] = biological target: T10, Human Cadherin-19; assay: FACS, endogenous CDH19 on tumor cells and 293/CDH-19 transfectants
Procedure: as §2, §3

B1: hu anti-<huCDH19> 2G6 (1-477)(R17G,D61E,D72E,K94N) VH::huIgG1z / 2G6 (1-234)(C42S,D110E) VL::huLLC-C1 (Ab ID 14039) (antibody, V domains shown)
VH: QVQLVESGGGVVQPGGSLRLSCAASGFTFSSYGMHWVRQAPGKGLEWVAFIWYEGSNKYYAESVKDRFTISRDNSKNTLYLQMNSLRAEDTAVYYCARRAGIIGTIGYYYGMDVWGQGTTVTVSS
VL: SYELTQPPSVSVSPGQTASITCSGDRLGEKYTSWYQQRPGQSPLLVIYQDTKRPSGIPERFSGSNSGNTATLTISGTQAMDEADYYCQAWESSTVVFGGGTKLTVLG
notes: Engineered variant of 2G6
binding result [1]: binds
binding result [2]: binds
binding result [3]: binds
binding result [4]: binds
binding result [5]: binds
binding result [6]: binds
binding result [7]: binds
binding result [8]: binds
binding result [9]: binds

B3: hu anti-<huCDH19> 4A2 (1-472)(Q17E,H47P) VH::huIgG1z / 4A2 (1-236)(N30Q,T102A) VL::huKLC (Ab ID 14026) (antibody, V domains shown)
VH: QVQLQESGPGLVKPSETLSLTCTVSGGSISSSGYYWSWIRQPPGKGLEWIGYIYYTGSAYYNPSLKSRVTISVDTSKNQFSLKLSSVTAADTAVYYCARDGSSGWYFQYWGQGTLVTVSS
VL: EIVLTQSPGTLSLSPGERATLSCRASRQISSSYLAWYQQKPGQAPRLLIYGPSSRATGIPDRFSGSGSGTDFTLTISRLEPEDFAVYYCQQYGSSFTFGPGTKVDIKR
notes: Engineered variant of 4A2
binding result [1]: binds
binding result [7]: binds
binding result [8]: binds

Other lines, results leading:

binding result (Human Cadherin-19 [10]): binds
binding result (Cyno Cadherin-19): binds
B2: anti-CDH19 antibody 23A10 (Ab ID 13884) (antibody, human IgG1, lambda, V domains shown)
VH: QVQLVESGGGVVQPGRSLRLSCAASGFTFSRYGIHWVRQAPGKGLEWVAVIWYDGSNKYYADSVKGRFTISRDNSKNTLYLLMNSLRAEDSAVYYCARRAGIPGTTGYYYGMDVWGQGTTVTVSS
VL: B1 VL with T32V, S33C, R38K, L44I, T51N, R53W, E91D

binding result (Human Cadherin-19 [11]): binds
binding result (Cyno Cadherin-19): binds
B4: hu anti-<huCDH19> 22G10.1 VH::huIgG1z / 22G10.1 VL::huKLC (Ab ID 13877) (antibody, V domains shown)
VH: EVQLLESGGGLVQPGGSLRLSCAASGFTFSSYAMNWVRQAPGKGLEWVSTISGGGANTYYADSVKGRFTISSDNSKSTLYLQMNSLRAADTAVYHCAKGGMGGYYYGMDVWGQGTTVTVSS
VL: EIVMTQSPVTLSLSLGERATLSCRASQSISSNLAWFQQKPGQAPRLLIYGAFTRATGIPARVSGSGSGTEFTLTISSLQSEDFAVYYCQQYNYWPLTFGGGTKVEIKR

Source: patent US20140322218A1 (Amgen, published 2014)
